We go through 1 substance from PMC9414842.

As a reminder, the stoichiometry N is the number of molecules, sites or subunits per partner or assembly.

The assay concerns the target human large conductance voltage- and calcium-activated potassium channel (hBK) (human) (UniProt Q12791). Put plainly: cryo-EM structure; random spherically constrained (RSC) single-particle cryo-EM of hBK reconstituted into POPC liposomes, without Ca2+ (20 mM HEPES pH 7.4, 150 mM KCl, 2 mM EDTA); map with C2 symmetry at 3.48 Å.

human large conductance voltage- and calcium-activated potassium channel (hBK), Q12791 1-1236 (natural protein; other documents disagree on this pair), sequence (Q12791 whole entry): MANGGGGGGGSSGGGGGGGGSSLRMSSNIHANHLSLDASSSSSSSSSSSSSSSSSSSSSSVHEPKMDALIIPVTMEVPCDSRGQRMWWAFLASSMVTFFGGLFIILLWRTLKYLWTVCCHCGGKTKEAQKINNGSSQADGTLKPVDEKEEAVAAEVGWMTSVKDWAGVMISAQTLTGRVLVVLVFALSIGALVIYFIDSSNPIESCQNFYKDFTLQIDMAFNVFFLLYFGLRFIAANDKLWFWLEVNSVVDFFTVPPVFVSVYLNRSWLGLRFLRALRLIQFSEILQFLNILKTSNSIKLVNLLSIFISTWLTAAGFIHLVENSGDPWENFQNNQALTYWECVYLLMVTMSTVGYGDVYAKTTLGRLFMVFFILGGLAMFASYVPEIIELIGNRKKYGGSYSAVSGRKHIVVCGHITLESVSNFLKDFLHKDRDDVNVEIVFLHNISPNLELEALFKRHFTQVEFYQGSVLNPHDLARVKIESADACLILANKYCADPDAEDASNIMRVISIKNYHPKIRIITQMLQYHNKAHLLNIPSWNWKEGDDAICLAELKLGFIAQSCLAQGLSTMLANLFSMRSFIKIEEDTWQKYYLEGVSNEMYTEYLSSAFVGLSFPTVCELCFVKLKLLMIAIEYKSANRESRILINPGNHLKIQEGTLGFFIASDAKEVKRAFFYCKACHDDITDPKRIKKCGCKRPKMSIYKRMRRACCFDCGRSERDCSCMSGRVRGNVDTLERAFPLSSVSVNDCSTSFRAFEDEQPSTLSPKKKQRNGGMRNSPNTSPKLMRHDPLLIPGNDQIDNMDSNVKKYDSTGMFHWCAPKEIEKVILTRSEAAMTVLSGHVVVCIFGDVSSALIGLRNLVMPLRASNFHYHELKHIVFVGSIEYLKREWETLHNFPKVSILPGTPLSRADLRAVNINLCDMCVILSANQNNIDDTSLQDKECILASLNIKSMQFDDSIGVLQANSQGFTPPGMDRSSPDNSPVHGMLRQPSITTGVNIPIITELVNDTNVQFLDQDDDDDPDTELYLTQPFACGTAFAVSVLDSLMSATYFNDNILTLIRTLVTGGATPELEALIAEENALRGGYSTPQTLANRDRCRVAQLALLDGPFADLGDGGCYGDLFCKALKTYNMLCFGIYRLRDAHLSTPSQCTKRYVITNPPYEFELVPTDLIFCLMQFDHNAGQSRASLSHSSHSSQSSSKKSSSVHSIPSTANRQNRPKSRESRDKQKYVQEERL

As for “human large conductance voltage- and calcium-activated potassium channel (hBK), Q12791 1-1236 (natural protein; other documents disagree on this pair)”, the stoichiometry N worked out at 4.
